For this assay, the target named is recombinant human CD137-ECD-Fc (APBio Inc.) (human, UniProt Q07011 24-186). Kind of assay: ELISA. A general note: In an ELISA, binding on a coated surface is turned into a signal by an enzyme label.

By EC50 is commonly meant the midpoint of the concentration-response curve.

Chain of recombinant human CD137-ECD-Fc (APBio Inc.) (Q07011 24-186): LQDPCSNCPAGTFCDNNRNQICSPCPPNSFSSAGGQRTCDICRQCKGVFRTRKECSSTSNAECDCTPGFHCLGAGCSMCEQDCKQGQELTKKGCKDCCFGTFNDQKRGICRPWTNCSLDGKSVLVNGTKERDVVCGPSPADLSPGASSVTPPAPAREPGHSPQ

B1: anti-CD137 antibody clone 31 (antibody, V domains shown)
VH: not shown
VL: QSALTQPASVSGSPGQSITISCTGTSSDVGAYNFVSWYQQRPGKAPELMIYDVSDRPSGVSNRFSGSKSGNTASLTISGLQTEDEADYYCSSYTSSITRYVFGTGTKVTVLG
Turning to B1, the EC50 stood at 0.151 nM.

B2: anti-CD137 antibody clone 54 (antibody, V domains shown)
VH: QVQLVQSGAEVKKPGSTVKVSCKASGGTFSSYAISWVRQAPGQGLEWMGRIIPILGIANYAQKFQGRVTITADKSTSTAYMELSSLRSEDTAVYYCASPPYYDSSGYYPLGAFDIWGQGTMVTVSS
VL: SYELTQPPSVSVSPGQTASITCSGDKLGEKYASWYQQKAGQSPILVIYQDSKRPSGIPERFSGSNSGNTATLTISGLQAGDEADYYCQAWDGSSTYVFGTGTKVTVFG
Consider B2, for which the EC50 worked out at 0.184 nM.
